Drawing on PMC7405809, this text covers EC50 for one substance.

One experiment concerns the target His6-BFL-1ΔC C4S/C19S (UniProt Q16548). Description: fluorescence polarisation.
The target of experiment [1] is BFL-1ΔC C4S/C19S conjugated to 4E14 at C55 (UniProt Q16548). Description: fluorescence polarisation.

As for FITC-BID BH3 peptide, the figures for the EC50 (with His6-BFL-1ΔC C4S/C19S; in experiment [1]) were 23 nM and 1300 nM, respectively.

What is called EC50 is the concentration that produces a half-maximal response. A low value points to greater potency.
